Molecular target: T1, nSR100 (Mus musculus, UniProt Q8BKA3)
T1 construct: host or cells: mouse N2A cells
T1 sequence (Q8BKA3 1-608): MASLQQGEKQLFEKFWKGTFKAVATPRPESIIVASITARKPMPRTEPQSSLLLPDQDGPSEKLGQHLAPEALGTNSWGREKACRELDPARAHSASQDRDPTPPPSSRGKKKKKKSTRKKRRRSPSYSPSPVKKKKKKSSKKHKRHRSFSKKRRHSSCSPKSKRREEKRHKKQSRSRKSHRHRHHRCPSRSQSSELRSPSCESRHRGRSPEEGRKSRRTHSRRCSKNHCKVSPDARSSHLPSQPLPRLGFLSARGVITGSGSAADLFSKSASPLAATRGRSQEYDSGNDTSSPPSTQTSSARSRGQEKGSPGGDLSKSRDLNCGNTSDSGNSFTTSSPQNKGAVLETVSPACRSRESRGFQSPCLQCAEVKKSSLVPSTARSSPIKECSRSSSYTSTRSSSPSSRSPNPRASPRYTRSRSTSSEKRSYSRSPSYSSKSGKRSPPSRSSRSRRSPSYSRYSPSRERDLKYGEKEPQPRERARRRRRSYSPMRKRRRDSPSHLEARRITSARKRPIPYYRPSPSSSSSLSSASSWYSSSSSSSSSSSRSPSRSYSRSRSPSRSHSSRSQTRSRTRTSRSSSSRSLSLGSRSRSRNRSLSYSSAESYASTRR
Experiment: AP-MS nSR100 interaction partners from mouse N2A cells (Table 5)
Assay type: binding
Details: for AvgP (average of the SAINT scores) / MaxP (maximal SAINT score): bait Srrm4; for FoldChange between the prey Avg spectra of the bait and control purifications: bait Srrm4, 0.1 added to prevent division by 0; for AvgSpec (average number of spectra per replicate): bait Srrm4, 2 replicates; for Spectra (number of spectra for the prey in the purification of the bait): AP-MS; for SpecSum: bait Srrm4, sum of spectra over 2 replicates

[1] = bait Srrm4, biological replicate 1 (first number of the cell)
[2] = bait Srrm4, biological replicate 2 (second number of the cell)

Source text: By applying affinity purification coupled to mass-spectrometry (AP-MS), several interaction nSR100 partner proteins were detected that provide insight into mechanisms of post-translational regulation of nSR100 levels.

B1: Rad23b (protein, UniProt P54728 1-416, looked up)
UV excision repair protein …: MQVTLKTLQQQTFKIDIDPEETVKALKEKIESEKGKDAFPVAGQKLIYAGKILSDDTALKEYKIDEKNFVVVMVTKPKAVTTAVPATTQPSSTPSPTAVSSSPAVAAAQAPAPTPALPPTSTPASTAPASTTASSEPAPAGATQPEKPAEKPAQTPVLTSPAPADSTPGDSSRSNLFEDATSALVTGQSYENMVTEIMSMGYEREQVIAALRASFNNPDRAVEYLLMGIPGDRESQAVVDPPPQAVSTGTPQSPAVAAAAATTTATTTTTSGGHPLEFLRNQPQFQQMRQIIQQNPSLLPALLQQIGRENPQLLQQISQHQEHFIQMLNEPVQEAGSQGGGGGGGGGGGGGGGGGIAEAGSGHMNYIQVTPQEKEAIERLKALGFPEGLVIQAYFACEKNENLAANFLLQQNFDED
For B1, which “AvgP (average of the SAINT scores)” value is on record?
The value was 1.

And the “MaxP (maximal SAINT score)” value?
The value was 1.

And the “FoldChange between the prey Avg spectra of the bait and control purifications” value (“FoldChange between the prey Avg spectra” below)?
Its value is 35.

What about the “AvgSpec (average number of spectra per replicate)” value of the same molecule?
Its value is 3.5.

What about the “Spectra (number of spectra for the prey in the purification of the bait)” value [1] of the same molecule?
The value was 3.

And the “Spectra (number of spectra for the prey in the purification of the bait)” value [2]?
The value was 4.

What about the SpecSum of the same molecule?
The SpecSum was 7.

B2: Srrm1 (protein, UniProt Q52KI8 1-946, looked up)
Serine/arginine repetitive …: MDAGFFRGTSAEQDNRFSNKQKKLLKQLKFAECLEKKVDMSKVNLEVIKPWITKRVTEILGFEDDVVIEFIFNQLEVKNPDSKMMQINLTGFLNGKNAREFMGELWPLLLSAQENIAGIPSAFLELKKEEIKQRQIEQEKLASLKKQDEDKDKRDKEEKESSREKRERSRSPRRRKSRSPSPRRRSSPVRRERKRSHSRSPRHRTKSRSPSPAPEKKEKSPELPEPSVRMKDSSVQEATSTSDILKAPKPEPVPEPKEPSPEKNSKKEKEKTRPRSRSRSKSRSRTRSRSPSHTRPRRRHRSRSRSYSPRRRPSPRRRPSPRRRTPPRRMPPPPRHRRSRSPGRRRRRSSASLSGSSSSSSSSRSRSPPKKPPKRTSSPPRKTRRLSPSASPPRRRHRPSSPATPPPKTRHSPTPQQSNRTRKSRVSVSPGRTSGKVTKHKGTEKRESPSPAPKPRKVELSESEEDKGSKMAAADSVQQRRQYRRQNQQSSSDSGSSSTSEDERPKRSHVKNGEVGRRRRHSPSRSASPSPRKRQKETSPRMQMGKRWQSPVTKSSRRRRSPSPPPARRRRSPSPAPPPPPPPPPPRRRRSPTPPPRRRTPSPPPRRRSPSPRRYSPPIQRRYSPSPPPKRRTASPPPPPKRRASPSPPPKRRVSHSPPPKQRSPTVTKRRSPSLSSKHRKGSSPGRSTREARSPQPNKRHSPSPRPRAPQTSSPPPVRRGASASPQGRQSPSPSTRPIRRVSRTPEPKKIKKTAMATQRNIRRVSKSPKADSLSRAASPSPQSVRRVSSSRSVSGSPEPAAKKPPAPPSPVQSQSPSTNWSPAVPAKKAKSPTPSLSPARNSDQEGGGKKKKKKKDKKHKKDKKHKKHKKHKKEKAVTIATPATAAPAAVSAATTTSAQEEPAAAPEPRKETESEAEDDNLDDLERHLREKALRSMRKAQVSPQS
What does the source list for B2?
AvgP (average of the SAINT scores): 1; MaxP (maximal SAINT score): 1; FoldChange between the prey Avg spectra of the bait and control purifications: 6.78; AvgSpec (average number of spectra per replicate): 30.5; Spectra (number of spectra for the prey in the purification of the bait) [1]: 25; Spectra (number of spectra for the prey in the purification of the bait) [2]: 36; SpecSum: 61

B3: Sf3b3 (protein, UniProt Q921M3 1-1217, looked up)
Splicing factor 3B subunit 3: MFLYNLTLQRATGISFAIHGNFSGTKQQEIVVSRGKILELLRPDPNTGKVHTLLTVEVFGVIRSLMAFRLTGGTKDYIVVGSDSGRIVILEYQPSKNMFEKIHQETFGKSGCRRIVPGQFLAVDPKGRAVMISAIEKQKLVYILNRDAAARLTISSPLEAHKANTLVYHVVGVDVGFENPMFACLEMDYEEADNDPTGEAAANTQQTLTFYELDLGLNHVVRKYSEPLEEHGNFLITVPGGSDGPSGVLICSENYITYKNFGDQPDIRCPIPRRRNDLDDPERGMIFVCSATHKTKSMFFFLAQTEQGDIFKITLETDEDMVTEIRLKYFDTVPVAAAMCVLKTGFLFVASEFGNHYLYQIAHLGDDDEEPEFSSAMPLEEGDTFFFQPRPLKNLVLVDELDSLSPILFCQIADLANEDTPQLYVACGRGPRSSLRVLRHGLEVSEMAVSELPGNPNAVWTVRRHIEDEFDAYIIVSFVNATLVLSIGETVEEVTDSGFLGTTPTLSCSLLGDDALVQVYPDGIRHIRADKRVNEWKTPGKKTIVKCAVNQRQVVIALTGGELVYFEMDPSGQLNEYTERKEMSADVVCMSLANVPPGEQRSRFLAVGLVDNTVRIISLDPSDCLQPLSMQALPAQPESLCIVEMGGTEKQDELGERGSIGFLYLNIGLQNGVLLRTVLDPVTGDLSDTRTRYLGSRPVKLFRVRMQGQEAVLAMSSRSWLSYSYQSRFHLTPLSYETLEFASGFASEQCPEGIVAISTNTLRILALEKLGAVFNQVAFPLQYTPRKFVIHPESNNLIIIETDHNAYTEATKAQRKQQMAEEMVEAAGEDERELAAEMAAAFLNENLPESIFGAPKAGNGQWASVIRVMNPIQGNTLDLVQLEQNEAAFSVAVCRFSNTGEDWYVLVGVAKDLILSPRSVAGGFVYTYKLVNNGEKLEFLHKTPVEEVPAAIAPFQGRVLIGVGKLLRVYDLGKKKLLRKCENKHIANYISGIQTIGHRVIVSDVQESFIWVRYKRNENQLIIFADDTYPRWVTTASLLDYDTVAGADKFGNICVVRLPPNTNDEVDEDPTGNKALWDRGLLNGASQKAEVIMNYHVGETVLSLQKTTLIPGGSESLVYTTLSGGIGILVPFTSHEDHDFFQHVEMHLRSEHPPLCGRDHLSFRSYYFPVKNVIDGDLCEQFNSMEPNKQKNVSEELDRTPPEVSKKLEDIRTRYAF
For B3, which “AvgP (average of the SAINT scores)” value is on record?
Its value is 1.

What about the “MaxP (maximal SAINT score)” value of the same molecule?
Its value is 1.

What about the “FoldChange between the prey Avg spectra” value of the same molecule?
Its value is 3.48.

What about the “AvgSpec (average number of spectra per replicate)” value of the same molecule?
The value was 97.5.

And the “Spectra (number of spectra for the prey in the purification of the bait)” value [1]?
Its value is 90.

What about the “Spectra (number of spectra for the prey in the purification of the bait)” value [2] of the same molecule?
The value was 105.

What about the SpecSum of the same molecule?
The SpecSum was 195.

B4: Ftsjd2 (protein, UniProt Q9DBC3 1-837, looked up)
Cap-specific mRNA …: MKRRTDPECTAPLKKQKRIGELARHLSSTSDDEPLSSVNHAAKASATSLSGSDSETEGKQPCSDDFKDAFKADSLVEGTSSRYSMYNSVSQRLMAKMGFREGEGLGKYSQGRKDIVETSNQKGRRGLGLTLQGFDQELNVDWRDEPEPNACEQVSWFPECTTEIPDSREMSDWMVVGKRKMVIEDETEFCGEELLHSMLKCKSVFDILDGEEMRRARTRANPYEMIRGVFFLNRAAMKMANMDFVFDRMFTNPLDSSGKPLLKESDIDLLYFADVCAGPGGFSEYVLWRKKWHAKGFGMTLKGPNDFKLEDFYSASSELFEPYYGEGGVDGDGDITRPENINAFRNFVLDNTDRKGVHFVMADGGFSVEGQENLQEILSKQLLLCQFLMALSVVRTGGHFVCKTFDLFTPFSVGLIYLLYCCFERVCLFKPITSRPANSERYVVCKGLKVGIDDVREYLFSVNIKLNQLRNTESDVNLVVPLMVIKGDHEFNDYMIRSNESYCSLQIKALAKIHAFVQDTTLSEPRQAEIRKECLQLWKIPDQARVAPSSSDPKFKFFELIKDTDINIFSYKPTLLTAKTLEKIRPVLEYRCMVSGSEQKFLLGLGKSQIYTWDGRQSDRWVKLDLKTELPRDTLLCVEIVHELKGEGKAQRKISAIHILDVLVLNGSDVREQHFNQRIQLAEKFVKAVSKPSRPDMNPIRVKEVYRLEEMEKIFVRLEMKLIKGSGGTPKLSYTGRDDRHFVPTGVYIVRTVNEPWTMGFSKSNNRKFFYNKKTQKSVYALPTESIAPFHTCYYSRLFWEWGDGFHMRDSQKPQDPDKLSKEDVLSFIQSHNPLGP
Which “AvgP (average of the SAINT scores)” value does the source give for B4 here?
The value was 1.

What about the “MaxP (maximal SAINT score)” value of the same molecule?
The value was 1.

What about the “FoldChange between the prey Avg spectra” value of the same molecule?
Its value is 40.

And the “AvgSpec (average number of spectra per replicate)” value?
Its value is 4.

What about the “Spectra (number of spectra for the prey in the purification of the bait)” value [1] of the same molecule?
Its value is 4|4.

And the “Spectra (number of spectra for the prey in the purification of the bait)” value [2]?
The value was 4|4.

And the SpecSum?
The SpecSum was 8.

B5: Ap2b1 (protein, UniProt Q9DBG3 2-937, looked up)
AP-2 complex subunit beta: TDSKYFTTNKKGEIFELKAELNNEKKEKRKEAVKKVIAAMTVGKDVSSLFPDVVNCMQTDNLELKKLVYLYLMNYAKSQPDMAIMAVNSFVKDCEDPNPLIRALAVRTMGCIRVDKITEYLCEPLRKCLKDEDPYVRKTAAVCVAKLHDINAQMVEDQGFLDSLRDLIADSNPMVVANAVAALSEISESHPNSNLLDLNPQNINKLLTALNECTEWGQIFILDCLSNYNPKDDREAQSICERVTPRLSHANSAVVLSAVKVLMKFLELLPKDSDYYNMLLKKLAPPLVTLLSGEPEVQYVALRNINLIVQKRPEILKQEIKVFFVKYNDPIYVKLEKLDIMIRLASQANIAQVLAELKEYATEVDVDFVRKAVRAIGRCAIKVEQSAERCVSTLLDLIQTKVNYVVQEAIVVIRDIFRKYPNKYESIIATLCENLDSLDEPDARAAMIWIVGEYAERIDNADELLESFLEGFHDESTQVQLTLLTAIVKLFLKKPSETQELVQQVLSLATQDSDNPDLRDRGYIYWRLLSTDPVTAKEVVLSEKPLISEETDLIEPTLLDELICHIGSLASVYHKPPNAFVEGSHGIHRKHLPIHHGSTDAGDSPVGTTTTTNLEQPQVIPSQGDLLGDLLNLDLGPPVNVPQVSSMQMGAVDLLGGGLDSLVGQSFIPSSVPATFAPSPTPAVVSSGLNDLFELSTGIGMAPGGYVAPKAVWLPAVKAKGLEISGTFTHRQGHIYMEMNFTNKALQHMTDFAIQFNKNSFGVIPSTPLAIHTPLMPNQSIDVSLPLNTLGPVMKMEPLNNLQVAVKNNIDVFYFSCLIPLNVLFVEDGKMERQVFLATWKDIPNENELQFQIKECHLNADTVSSKLQNNNVYTIAKRNVEGQDMLYQSLKLTNGIWILAELRIQPGNPNYTLSLKCRAPEVSQYIYQVYDSILKN
Which results are given for B5?
AvgP (average of the SAINT scores): 1; MaxP (maximal SAINT score): 1; FoldChange between the prey Avg spectra of the bait and control purifications: 5.13; AvgSpec (average number of spectra per replicate): 79.5; Spectra (number of spectra for the prey in the purification of the bait) [1]: 83; Spectra (number of spectra for the prey in the purification of the bait) [2]: 76; SpecSum: 159

From patent US10772928B2, “Modulation and detection of a neuronal alternative splicing regulatory network for treatment and diagnosis of neurological disorders” (The Governing Council of the University of Toronto, priority 2014, dated 2020)
